Laboratory results from US20200171174A1 (Astellas, published 2020).

Molecular target: T1, human cancer-specific MUC1 (human, UniProt P15941 24-1255)
T1 construct: whole, on cells; Endogenous MUC1 with cancer-specific incomplete O-glycosylation on cancer cells; also called Mucin 1; human MUC1
Assay: Cell ELISA on formalin-fixed T-47D cells, HRP anti-human Ig kappa, luminescence
Experimental: Specifically, breast cancer cell line T-47D cells (purchasable from ATCC; HTB-133) expressing human cancer-specific MUC1 were inoculated at 0.75×10⁴ cells per well to a 96-well ELISA plate coated with collagen I, and cultured overnight. […] Then, a horseradish peroxidase (HRP)-labeled goat anti-human Igκ antibody (Southern Biotechnology Associates, Inc.) was reacted as a secondary antibody. ECL Prime Western Blotting Detection Reagent (GE Healthcare Japan Corp.) was added thereto for luminescence, and the degree of the luminescence was examined.

| Binder | binding activity relative to 1B2 Fab [times] |
| --- | --- |
| P10-2 Fab (Fab, V domains shown, heavy chain N-terminal glutamine modified into pyroglutamic acid in a great majority of purified antibodies, expressed in Expi293F cells, purified on KappaSelect; also called anti-human MUC1 antibody Fab fragment P10-2) VH: QVQLVQSGAEVKKPGASVKVSCKASGYTFTNYGLSWVRQAPGQGLEWMGENHPGSGIIYHNEKFRGRVTLTADRSTSTAYMELSSLRSEDTAVYYCARSSGTRGFDYWGQGTLVTVSS VL: DVVMTQTPLSLSVTPGQPASISCRSSQSIVHSNGNTYLEWYLQKPGQSPQLLIYRVSNRFSGVPDRFSGSGSGTDFTLKISRVEAEDVGVYYCFQGSHGPWTFGQGTKLEIKR | ≥ 10 |
| P10-1 Fab (Fab, V domains shown, expressed in Expi293F cells, purified on KappaSelect; also called anti-human MUC1 antibody Fab fragment P10-1) VH: QVQLVQSGAEVKKPGASVKVSCKASGYTFTNYGLSWVRQAPGQGLEWMGENHPGSGIIYHNEKFRGRVTLTADRSTSTAYMELSSLRSEDTAVYYCARSSGTRGFAYWGQGTLVTVSS VL: DVVMTQTPLSLSVTPGQPASISCRSSQSIVHSNGNTYLEWYLQKPGQSPQLLIYRVSNRFSGVPDRFSGSGSGTDFTLKISRVEAEDVGVYYCFQGSHGPWTFGQGTKLEIKR | ≥ 10 |
